Measured values from patent publication US20170157198A1.

Columns and labels:
[1] = biological target: T1, TFPI (human TFPI-1α), as coated or added in the ELISA and model assays (human), P10646; assay: ELISA; conditions: modification not given
[2] = biological target: T1, TFPI (human TFPI-1α), as coated or …; assay: competition; conditions: modification not given

| IC50 [1] [nM] | IC50 [2] [nM] | Binder |
| --- | --- | --- |
| > 1670 | – | LKARLREFYGFVFVNKKSQF [JBT0783] |
| – | 68 | FQSKGAVFVFGYFARLRAKL [JBT0681] |
| 27 | – | FQSKGNVFVTGYFARLRAKL [JBT0720] |
